Assay [1] has as its target T1, DDB1 in DF15R cell extracts (UniProt Q16531 2-1140).
T1 construct: Co-immunoprecipitated with FLAG-tagged CRBN proteins from cell extracts
The assay can be described thus: immunoprecipitation and Western blot from DF15R cell extracts (FIG. 24C).

For another assay, the target named is T2, full-length human GSPT1 (human, UniProt P15170 1-499).
T2 construct: mature; limits unknown; also called hGSPT1
Briefly: CRBN immunoprecipitation in the presence of vehicle or Compound C (FIG. 34A).

For the next assay, the target named is T3, human GSPT1 G575N (human, UniProt P15170-3 139-637, limits assumed).
T3 construct: also called G575N mutation in GSPT1
Briefly: Compound C-induced in vitro binding of GSPT1 to CRBN (FIG. 31C).

Changes are numbered by the printed parent chain. Names may count otherwise.

T2 sequence (P15170 other isoform, or with tags, fused parts or gaps limits assumed): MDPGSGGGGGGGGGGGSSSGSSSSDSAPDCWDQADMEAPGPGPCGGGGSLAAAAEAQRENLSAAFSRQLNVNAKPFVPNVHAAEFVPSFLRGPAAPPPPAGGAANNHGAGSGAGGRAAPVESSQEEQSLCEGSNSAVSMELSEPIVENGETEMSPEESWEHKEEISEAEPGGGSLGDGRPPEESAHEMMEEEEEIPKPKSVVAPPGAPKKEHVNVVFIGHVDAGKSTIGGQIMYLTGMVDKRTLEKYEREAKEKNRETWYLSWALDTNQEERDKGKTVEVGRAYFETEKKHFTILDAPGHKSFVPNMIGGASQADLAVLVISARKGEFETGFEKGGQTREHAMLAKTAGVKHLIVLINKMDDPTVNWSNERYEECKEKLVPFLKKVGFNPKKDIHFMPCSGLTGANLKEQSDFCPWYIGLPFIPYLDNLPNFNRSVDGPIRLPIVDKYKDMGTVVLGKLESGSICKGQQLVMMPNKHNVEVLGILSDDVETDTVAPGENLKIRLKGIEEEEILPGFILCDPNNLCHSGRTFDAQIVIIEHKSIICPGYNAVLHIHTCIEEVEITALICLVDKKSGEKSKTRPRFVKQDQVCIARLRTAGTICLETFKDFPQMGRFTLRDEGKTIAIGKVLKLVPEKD
T1 sequence (Q16531 2-1140 limits assumed): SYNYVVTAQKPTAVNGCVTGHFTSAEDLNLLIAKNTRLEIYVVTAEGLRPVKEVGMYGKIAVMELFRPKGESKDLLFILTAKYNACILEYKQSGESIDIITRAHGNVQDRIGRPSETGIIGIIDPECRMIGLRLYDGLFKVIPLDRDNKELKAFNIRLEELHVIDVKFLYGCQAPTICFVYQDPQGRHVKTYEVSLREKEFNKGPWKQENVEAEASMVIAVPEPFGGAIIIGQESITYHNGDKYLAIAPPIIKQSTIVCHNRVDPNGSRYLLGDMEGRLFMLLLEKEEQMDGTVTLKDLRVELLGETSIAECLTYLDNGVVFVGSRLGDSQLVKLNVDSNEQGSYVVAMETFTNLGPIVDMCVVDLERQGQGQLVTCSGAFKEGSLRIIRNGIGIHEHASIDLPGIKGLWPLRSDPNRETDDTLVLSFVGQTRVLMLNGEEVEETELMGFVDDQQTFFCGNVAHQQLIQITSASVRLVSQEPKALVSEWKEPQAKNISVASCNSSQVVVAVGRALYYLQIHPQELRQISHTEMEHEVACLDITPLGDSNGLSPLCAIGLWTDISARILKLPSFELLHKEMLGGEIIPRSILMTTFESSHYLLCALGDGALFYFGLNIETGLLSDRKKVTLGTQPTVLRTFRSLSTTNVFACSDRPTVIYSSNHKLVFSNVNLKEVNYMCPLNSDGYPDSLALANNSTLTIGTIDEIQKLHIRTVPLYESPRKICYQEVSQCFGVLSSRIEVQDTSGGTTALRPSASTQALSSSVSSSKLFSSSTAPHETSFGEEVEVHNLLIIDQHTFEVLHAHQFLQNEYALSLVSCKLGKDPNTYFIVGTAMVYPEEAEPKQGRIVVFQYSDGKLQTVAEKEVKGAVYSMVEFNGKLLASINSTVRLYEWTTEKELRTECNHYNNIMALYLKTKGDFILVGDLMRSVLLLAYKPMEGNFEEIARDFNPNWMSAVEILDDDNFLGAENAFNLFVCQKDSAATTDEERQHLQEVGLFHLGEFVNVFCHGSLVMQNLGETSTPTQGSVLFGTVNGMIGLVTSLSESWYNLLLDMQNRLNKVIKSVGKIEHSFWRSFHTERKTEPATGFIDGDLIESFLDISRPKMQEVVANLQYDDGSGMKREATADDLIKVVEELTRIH
T3 sequence (P15170 whole entry G437N): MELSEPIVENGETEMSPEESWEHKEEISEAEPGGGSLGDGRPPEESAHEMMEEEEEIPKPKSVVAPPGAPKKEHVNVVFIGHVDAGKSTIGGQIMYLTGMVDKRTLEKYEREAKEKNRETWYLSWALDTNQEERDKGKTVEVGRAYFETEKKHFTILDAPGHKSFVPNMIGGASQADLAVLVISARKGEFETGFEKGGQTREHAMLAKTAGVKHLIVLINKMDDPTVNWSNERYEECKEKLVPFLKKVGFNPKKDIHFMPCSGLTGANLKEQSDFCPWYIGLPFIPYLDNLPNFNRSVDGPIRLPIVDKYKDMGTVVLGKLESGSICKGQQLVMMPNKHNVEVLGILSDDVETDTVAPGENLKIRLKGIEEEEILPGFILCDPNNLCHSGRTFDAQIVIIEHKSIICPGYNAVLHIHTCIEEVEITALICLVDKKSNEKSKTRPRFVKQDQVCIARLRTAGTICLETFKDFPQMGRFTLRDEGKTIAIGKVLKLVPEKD

B1: full length CRBN W386A (CRBN^W386A), FLAG-tagged, re-expressed in DF15R cells (other, human, UniProt Q96SW2 1-442, looked up)
chain: MAGEGDQQDAAHNMGNHLPLLPAESEEEDEMEVEDQDSKEAKKPNIINFDTSLPTSHTYLGADMEEFHGRTLHDDDSCQVIPVLPQVMMILIPGQTLPLQLFHPQEVSMVRNLIQKDRTFAVLAYSNVQEREAQFGTTAEIYAYREEQDFGIEIVKVKAIGRQRFKVLELRTQSDGIQQAKVQILPECVLPSTMSAVQLESLNKCQIFPSKPVSREDQCSYKWWQKYQKRKFHCANLTSWPRWLYSLYDAETLMDRIKKQLREWDENLKDDSLPSNPIDFSYRVAACLPIDDVLRIQLLKIGSAIQRLRCELDIMNKCTSLCCKQCQETEITTKNEIFSLSLCGPMAAYVNPHGYVHETLTVYKACNLNLIGRPSTEHSWFPGYAATVAQCKICASHIGWKFTATKKDMSPQKFWGLTRSALLPTIPDTEDEISPDKVILCL
notes: mature; not shown: FLAG tag
For the molecule B1, the binding result in assay [1] is “binds”.

B2: full length CRBN W400A (CRBN^W400A), FLAG-tagged, re-expressed in DF15R cells (other, human, UniProt Q96SW2 1-442, looked up)
chain: B1 chain with A386W, W400A
notes: mature; not shown: FLAG tag
Consider B2, for which, in assay [1], the binding result is “binds”.

B3: human CRBN E377A (other, UniProt Q96SW2 1-442, looked up)
chain: B1 chain with E377A, A386W
Regarding B3, in the assay with full-length human GSPT1, the binding result is “no binding”.

B4: human CRBN H357A (other, UniProt Q96SW2 1-442, looked up)
chain: B1 chain with H357A, A386W
As for B4, the binding result in the assay with full-length human GSPT1 is listed as “no binding”.

B5: human CRBN E377V (other, UniProt Q96SW2 1-442, looked up)
chain: B1 chain with E377V, A386W
For the molecule B5, the binding result with full-length human GSPT1 is “no binding”.

B6: human WT CRBN (other, UniProt Q96SW2 1-442, looked up)
chain: B1 chain with A386W
notes: also called cereblon; hCRBN
As for B6, in the assay with human GSPT1 G575N, the binding result is “no binding”.

Values taken from patent US10830762 (dated 2020).
